From US20230241113A1 (IMMATICS BIOTECHNOLOGIES, published 2023)

biological target: T1, HLA-A*02:01 (human); assay: UV-ligand exchange + anti-β2m ELISA; exchange yield grade: ≥10% +, ≥20% ++, ≥50 +++, ≥75% ++++
T1 construct: captured on streptavidin plates, detected with anti-β2m; also called peptide-receptive MHC molecules; MHC class I
Procedure: The individual peptide-MHC complexes were produced by UV-ligand exchange, where a UV-sensitive peptide is cleaved upon UV-irradiation and exchanged with the peptide of interest as analyzed. Only peptide candidates that can effectively bind and stabilize the peptide-receptive MHC molecules prevent dissociation of the MHC complexes. To determine the yield of the exchange reaction, an ELISA was performed based on the detection of the light chain (β2m) of stabilized MHC complexes. The assay was performed as generally described in Rodenko et al. (Rodenko et al., 2006).
96 well MAXISorp plates (NUNC) were coated over night with 2 μg/ml streptavidin in PBS at room temperature, washed 4× and blocked for 1 h at 37° C. in 2% BSA containing blocking buffer. Refolded HLA-A*02:01/MLA-001 monomers served as standards, covering the range of 15-500 ng/ml. Peptide-MHC monomers of the UV-exchange reaction were diluted 100 fold in blocking buffer. Samples were incubated for 1 h at 37° C., washed four times, incubated with 2 μg/ml HRP conjugated anti-β2m for 1 h at 37° C., washed again and detected with TMB solution that is stopped with […]. Absorption was measured at 450 nm. Candidate peptides that show a high exchange yield (preferably higher than 50%, most preferred higher than 75%) are generally preferred for a generation and production of antibodies or fragments thereof, and/or T cell receptors or fragments thereof, as they show sufficient avidity to the MHC molecules and prevent dissociation of the MHC complexes.

Row | peptide exchange yield [%] | Binder
1 | ≥ 75 | KLLDFSTRI (also called KLLDFSTRI) [NUDCD2-001]
2 | ≥ 75 | VLLNSNYPV (also called VLLNSNYPV) [altORF-033]
3 | 20 to 50 | NLVMPLLHI (also called NLVMPLLHI) [altORF-013]
4 | ≥ 75 | LLNVEPAGA (also called LLNVEPAGA) [altORF-032]
5 | ≥ 75 | TLTSLNILL (also called TLTSLNILL) [altORF-022]
6 | ≥ 75 | WLIPRQLAAA (also called WLIPRQLAAA) [altORF-042]
7 | ≥ 75 | KMMTFFQGL (also called KMMTFFQGL) [altORF-016]
8 | 50 to 75 | SQLEKPETA (also called SQLEKPETA) [altORF-026]
9 | ≥ 75 | FQVTRTTGV (also called FQVTRTTGV) [altORF-034]
10 | ≥ 75 | FTLPFLVNL (also called FTLPFLVNL) [altORF-038]
11 | 20 to 50 | AIWSTILIA (also called AIWSTILIA) [altORF-041]
12 | ≥ 75 | VVLPIVITL (also called VVLPIVITL) [altORF-029]
13 | ≥ 75 | MLAEIHPKA (also called MLAEIHPKA) [altORF-046]
14 | 20 to 50 | LLRLTLLPL (also called LLRLTLLPL) [altORF-028]
15 | 20 to 50 | VLISLPGKV (also called VLISLPGKV) [altORF-018]
16 | 20 to 50 | VLPWQPLLL (also called VLPWQPLLL) [altORF-059]
17 | ≥ 75 | KLWTSLVNL (also called KLWTSLVNL) [altORF-024]
18 | ≥ 75 | ALWEEVKATSL (also called ALWEEVKATSL) [altORF-005]
19 | 50 to 75 | IITNLIVNI (also called IITNLIVNI) [altORF-054]
20 | ≥ 75 | GLASYLDRV (also called GLASYLDRV) [altORF-048]
21 | ≥ 75 | LLCPVVLQL (also called LLCPVVLQL) [altORF-067]
22 | ≥ 75 | FLLVPSPIWQL (also called FLLVPSPIWQL) [altORF-001]
23 | ≥ 75 | GLSPDQVFL (also called GLSPDQVFL) [altORF-052]

Row | peptide exchange yield [%] | Binder
24 | ≥ 75 | YVLMTSLLL (also called YVLMTSLLL) [altORF-055]
25 | ≥ 75 | FASERPPSV (also called FASERPPSV) [altORF-031]
26 | 50 to 75 | VLSVSAVLGA (also called VLSVSAVLGA) [altORF-030]
27 | ≥ 75 | FLWDPRDVVL (also called FLWDPRDVVL) [altORF-047]
28 | ≥ 75 | LLIEVSEEL (also called LLIEVSEEL) [altORF-012]
29 | ≥ 75 | MLLPWLPKL (also called MLLPWLPKL) [altORF-017]
30 | ≥ 75 | KILDEFYNV (also called KILDEFYNV) [altORF-035]
31 | ≥ 75 | AMVEIIPKV (also called AMVEIIPKV) [altORF-044]
32 | 20 to 50 | ISVLNLSAI (also called ISVLNLSAI) [altORF-023]
33 | ≥ 75 | KLLADAFKV (also called KLLADAFKV) [altORF-066]
34 | ≥ 75 | WITPVIPAL (also called WITPVIPAL) [altORF-040]
35 | ≥ 75 | LAASTTFLGV (also called LAASTTFLGV) [altORF-057]
36 | 20 to 50 | LSFKRSLSI (also called LSFKRSLSI) [altORF-061]
37 | 10 to 20 | LLLALRLSL (also called LLLALRLSL) [altORF-062]
38 | ≥ 75 | LVWEVVESV (also called LVWEVVESV) [altORF-003]
39 | ≥ 75 | ALLPGVPGL (also called ALLPGVPGL) [altORF-045]
40 | ≥ 75 | ALLDVLVKL (also called ALLDVLVKL) [COLPDG-001]
41 | ≥ 75 | SLLGKPGLTI (also called SLLGKPGLTI) [altORF-060]
42 | 50 to 75 | FVFISPSFL (also called FVFISPSFL) [altORF-019]
43 | 20 to 50 | LAFVSHVLI (also called LAFVSHVLI) [altORF-050]
44 | 20 to 50 | MIISHRALEL (also called MIISHRALEL) [altORF-056]
45 | ≥ 75 | VLWDLRPSSLI (also called VLWDLRPSSLI) [altORF-015]
46 | ≥ 75 | YIYEDEVRL (also called YIYEDEVRL) [altORF-037]

Row | peptide exchange yield [%] | Binder
47 | ≥ 75 | GLLTQVHIL (also called GLLTQVHIL) [altORF-049]
48 | 20 to 50 | GLEVLDALL (also called GLEVLDALL) [altORF-021]
49 | 50 to 75 | MVQQEKLFV (also called MVQQEKLFV) [altORF-053]
50 | ≥ 75 | LLLATLENL (also called LLLATLENL) [altORF-058]
51 | ≥ 75 | SLLDKLSGI (also called SLLDKLSGI) [altORF-008]
52 | 20 to 50 | IAAGVPNTDA (also called IAAGVPNTDA) [altORF-025]
53 | ≥ 75 | ALLDAEQSPVAL (also called ALLDAEQSPVAL) [altORF-014]
54 | ≥ 75 | IAISQLTFV (also called IAISQLTFV) [altORF-063]
55 | ≥ 75 | ALHDSPVYL (also called ALHDSPVYL) [altORF-004]
56 | ≥ 75 | FLDEGSLLRL (also called FLDEGSLLRL) [altORF-011]
57 | ≥ 75 | HLDSMNVSI (also called HLDSMNVSI) [altORF-010]
58 | 50 to 75 | LMASEGIWESSL (also called LMASEGIWESSL) [altORF-039]
59 | 50 to 75 | ALLPHAPEAV (also called ALLPHAPEAV) [altORF-009]
60 | ≥ 75 | SLSAWLPSL (also called SLSAWLPSL) [altORF-036]
61 | ≥ 75 | LLWEFPSMA (also called LLWEFPSMA) [altORF-027]
62 | ≥ 75 | TISISLSSV (also called TISISLSSV) [altORF-051]
63 | ≥ 75 | YLGDSHVLL (also called YLGDSHVLL) [altORF-002]
64 | ≥ 75 | SLYDVPVGA (also called SLYDVPVGA) [altORF-020]
65 | ≥ 75 | ILNELLNSI (also called ILNELLNSI) [altORF-064]
66 | 20 to 50 | ALKELMGPA (also called ALKELMGPA) [altORF-065]
67 | ≥ 75 | ALYHQSPLL (also called ALYHQSPLL) [altORF-043]
